B1: Triacylglycerol hydrolase DDHD2, residues 389 to 447; numbered along this chain, O94830 (parent)
chain: TLEEDLKKLQLSEFFDIFEKEKVDKEALALCTDRDLQEIGIPLGPRKKILNYFSTRKNS

Variants of: B1
Assay: abundance fitness (aPCA) (normalised: wild type 0, dead -1); higher = more abundant; growth selection in yeast, the domain comes from the species named
Conditions: Homo sapiens

Abundance fitness of substitutions, site by site:
K47: Q 0.492, A 0.296, H -0.376, L -0.087, C 0.136, P -0.627, Y -0.524, S 0.225, W -0.368, R -0.065, I 0.193, G 0.101, M 0.58, F -0.772, N 0.254
P45: G -0.168, M 0.019, A 0.615, H -0.261, V 0.411, W -1.26, N -0.274, R -0.716, Q 0.188, F -0.144, Y -0.426, K -0.285, T -0.031, D 0.017, C -0.205, E 0.244, S -0.032, L -0.496
R46: V -0.52, E -0.217, G -0.107, M -0.431, Q -0.243, C -0.172, W -1.27, A 0.45, K -0.338, L -0.744, T -0.224, D -0.242, P -0.628, N -0.152, S -0.058, Y -0.848, I -0.163
I49: F -0.765, G -0.593, R -0.489, W -0.477, V -0.215, D -0.125, P -0.34, S -0.046, M -0.09, K -0.467, T -0.301, L -0.077, Y -0.946, E -0.052, N -0.589, H -0.07, C -0.33, Q -0.307, A -0.244
L43: H 0.519, Y 0.473, T 0.543, F 0.313, C 0.47, E 0.725, G 0.231, W 0.16, N 0.295, S 0.617, Q 0.621, I 0.496, V 0.48, M 0.298, R 0.512
R56: K -0.143, S -0.027, T 0.033, G -0.105, A 0.134, N -0.236, P 0.084, V 0.035, E 0.123, Y 0.019, F -0.074, W -0.1, C -0.065, H -0.207, L -0.086, D 0.05, M 0.095, Q 0.143
P42: G -0.587, S -0.493, Y -0.83, L -0.958, T -0.839, A -0.518, V -1.01, F -1.17, H -1.06, E -0.213, C -0.842, N -0.35, Q -0.393, M -0.649, K -0.737, R -0.872
K48: R 0.088, V 0.244, M 0.146, G -0.698, Y -0.566, E 0.036, A 0.106, L -0.007, S -0.075, F -0.457, W -0.946, I 0.104, D -0.184, T 0.374, P -0.494, N -0.344, H -0.213, C -0.408
K57: T -0.155, M 0.067, N -0.287, H -0.291, A -0.102, I -0.075, G -0.031, V -0.175, L -0.219, Q -0.076, W -0.525, S -0.115, C -0.269, Y -0.244, F -0.224
S54: R -0.122, D -0.146, V -0.409, E -0.033, L -0.306, Y -0.443, K -0.071, P -0.309, W -0.471, Q 0.055, T -0.097, C -0.285, H -0.208, N -0.152, I -0.146, M 0.17
